Here are results for 13 molecules from patent US20240279356A1 (Xencor, published 2024).

Substitutions are numbered along the chain they refer to. Names and notes keep the numbering of the source.

The chains are these.
B1: XENP31701 (bispecific antibody)
heavy: QVQLVQSGAEVKKPGASVKVSCKASGYTFTSYWMHWVRQAPGQGLEWMGMIHPNSDNTIYYEKFQGRVTMTVDKSISTAYMELSRLRSDDTAVYYCAIIITPVVPKFDYWGQGTLVTVSSASTKGPSVFPLAPSSKSTSGGTAALGCLVKDYFPEPVTVSWNSGALTSGVHTFPAVLQSSGLYSLSSVVTVPSSSLGTQTYICNVNHKPSDTKVDKKVEPKSCDKTHTCPPCPAPPVAGPSVFLFPPKPKDTLMISRTPEVTCVVVDVKHEDPEVKFNWYVDGVEVHNAKTKPREEEYNSTYRVVSVLTVLHQDWLNGKEYKCKVSNKALPAPIEKTISKAKGQPREPQVYTLPPSREEMTKNQVSLTCDVSGFYPSDIAVEWESDGQPENNYKTTPPVLDSDGSFFLYSKLTVDKSRWEQGDVFSCSVMHEALHNHYTQKSLSLSPGK
scFv-Fc: not shown
light: DIVMTQSPDSLAVSLGERATINCKASHDVGTSVAWYQQKPGQSPKLLIYWASTRHTGVPDRFTGSGSGTDFTLTISSLQAEDVAVYFCQQYSSYPLTFGAGTKLEIKRTVAAPSVFIFPPSDEQLKSGTASVVCLLNNFYPREAKVQWKVDNALQSGNSQESVTEQDSKDSTYSLSSTLTLSKADYEKHKVYACEVTHQGLSSPVTKSFNRGEC
notes: VH WT, VL WT; also called MESO-C H1_L1; copies: 1 + 1 + 1
B2: XENP32553 (bispecific antibody)
Fab-Fc heavy chain (anti-MSLN VH): B1 heavy with H52N
scFv-Fc heavy chain (anti-CD3 H1.30_L1.47): not shown
light chain (anti-MSLN VL): B1 light
notes: 1+1 Fab-scFv-Fc bsAb; VH H52N, VL WT (Kabat); also called MESO-C H1.4_L1
B3: XENP32556 (bispecific antibody)
Fab-Fc heavy chain (anti-MSLN VH): B1 heavy with I98R
scFv-Fc heavy chain (anti-CD3 H1.30_L1.47): not shown
light chain (anti-MSLN VL): B1 light
notes: 1+1 Fab-scFv-Fc bsAb; VH I94R, VL WT (Kabat); also called MESO-C H1.7_L1
B4: XENP32555 (bispecific antibody)
Fab-Fc heavy chain (anti-MSLN VH): B1 heavy with D56G
scFv-Fc heavy chain (anti-CD3 H1.30_L1.47): not shown
light chain (anti-MSLN VL): B1 light
notes: 1+1 Fab-scFv-Fc bsAb; VH D55G, VL WT (Kabat); also called MESO-C H1.6_L1
B5: XENP32559 (bispecific antibody)
Fab-Fc heavy chain (anti-MSLN VH): B1 heavy
scFv-Fc heavy chain (anti-CD3 H1.30_L1.47): not shown
light chain (anti-MSLN VL): B1 light with A25S
notes: 1+1 Fab-scFv-Fc bsAb; VH WT, VL A25S (Kabat); also called MESO-C H1_L1.1
B6: XENP32560 (bispecific antibody)
Fab-Fc heavy chain (anti-MSLN VH): B1 heavy
scFv-Fc heavy chain (anti-CD3 H1.30_L1.47): not shown
light chain (anti-MSLN VL): B1 light with H27Q
notes: 1+1 Fab-scFv-Fc bsAb; VH WT, VL H27Q (Kabat); also called MESO-C H1_L1.2
B7: XENP32558 (bispecific antibody)
Fab-Fc heavy chain (anti-MSLN VH): B1 heavy with K106R
scFv-Fc heavy chain (anti-CD3 H1.30_L1.47): not shown
light chain (anti-MSLN VL): B1 light
notes: 1+1 Fab-scFv-Fc bsAb; VH K100bR, VL WT (Kabat); also called MESO-C H1.9_L1
B8: XENP32564 (bispecific antibody)
Fab-Fc heavy chain (anti-MSLN VH): B1 heavy
scFv-Fc heavy chain (anti-CD3 H1.30_L1.47): not shown
light chain (anti-MSLN VL): B1 light with V33L
notes: 1+1 Fab-scFv-Fc bsAb; VH WT, VL V33L (Kabat); also called MESO-C H1_L1.6
B9: XENP32554 (bispecific antibody)
Fab-Fc heavy chain (anti-MSLN VH): B1 heavy with N54Q
scFv-Fc heavy chain (anti-CD3 H1.30_L1.47): not shown
light chain (anti-MSLN VL): B1 light
notes: 1+1 Fab-scFv-Fc bsAb; VH N53Q, VL WT (Kabat); also called MESO-C H1.5_L1
B10: XENP32565 (bispecific antibody)
Fab-Fc heavy chain (anti-MSLN VH): B1 heavy
scFv-Fc heavy chain (anti-CD3 H1.30_L1.47): not shown
light chain (anti-MSLN VL): B1 light with H55E
notes: 1+1 Fab-scFv-Fc bsAb; VH WT, VL H55E (Kabat); also called MESO-C H1_L1.7
B11: XENP32557 (bispecific antibody)
Fab-Fc heavy chain (anti-MSLN VH): B1 heavy with T101S
scFv-Fc heavy chain (anti-CD3 H1.30_L1.47): not shown
light chain (anti-MSLN VL): B1 light
notes: 1+1 Fab-scFv-Fc bsAb; VH T97S, VL WT (Kabat); also called MESO-C H1.8_L1
B12: XENP32550 (bispecific antibody)
Fab-Fc heavy chain (anti-MSLN VH): B1 heavy with S31G
scFv-Fc heavy chain (anti-CD3 H1.30_L1.47): not shown
light chain (anti-MSLN VL): B1 light
notes: 1+1 Fab-scFv-Fc bsAb; VH S31G, VL WT (Kabat); also called MESO-C H1.1_L1
B13: XENP32551 (bispecific antibody)
Fab-Fc heavy chain (anti-MSLN VH): B1 heavy with W33Y
scFv-Fc heavy chain (anti-CD3 H1.30_L1.47): not shown
light chain (anti-MSLN VL): B1 light
notes: 1+1 Fab-scFv-Fc bsAb; VH W32Y, VL WT (Kabat); also called MESO-C H1.2_L1

The first experiment deals with T1, human MSLN antigen (human, UniProt Q13421 296-580, limits assumed).
T1 construct: Soluble antigen for BLI; also called Mesothelin; MESO
T1 sequence (Q13421 other isoform, or with tags, fused parts or gaps limits assumed): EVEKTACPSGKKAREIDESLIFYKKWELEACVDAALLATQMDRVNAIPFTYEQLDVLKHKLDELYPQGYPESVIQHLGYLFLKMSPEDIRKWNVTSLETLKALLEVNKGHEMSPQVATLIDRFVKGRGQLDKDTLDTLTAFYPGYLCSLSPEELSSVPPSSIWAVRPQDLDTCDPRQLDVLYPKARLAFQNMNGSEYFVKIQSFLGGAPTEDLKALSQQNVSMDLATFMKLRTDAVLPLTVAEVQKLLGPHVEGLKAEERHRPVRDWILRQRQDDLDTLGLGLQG
Kind of experiment: Octet BLI; bsAb on anti-human Fc sensor, human MSLN as analyte, one concentration. The text has this: Variants of MESO-C were engineered by introducing point substitutions into the variable heavy region (VH) and the variable light region (VL) to generate 11 VH variants and 16 VL variants (sequences for which are depicted in FIG. 18 as H1.1-H1.13 and in FIG. 19 as L1.1-L1.18). An additional 4 VL variants were generated by combining useful point substitutions (sequences for which are depicted in FIG. 19 as L1.19-L1.22). WT and variant variable heavy regions were paired with WT and variant variable light regions to generate variant variable regions (Fvs) which were produced in the context of anti-MSLN×anti-CD3 bispecific antibodies. The bispecific antibodies were screened for MSLN binding affinity using Octet®, a BioLayer Interferometry (BLI)-based method. Experimental steps for Octet® generally include the following: Immobilization (capture of ligand to a biosensor); Association (dipping of ligand-coated biosensors into wells containing the analyte); and Dissociation (returning of biosensors to well containing buffer). In an initial screening, anti-human Fc sensors were used to capture the bispecific mAbs and dipped into human MSLN antigen (one concentration to screen large library). The resulting dissociation constant of illustrative variants (KD), association rate (kₐ), dissociation rate (kd), as well as sensorgram response are depicted in FIG. 20. In further screening of favorite variants identified in the initial screen (and combination variants), bispecific mAbs were dipped into multiple concentrations of human MSLN antigen, data for which are depicted in FIG. 21 (from various screens).
In the case of B1, the Kd (usually the constant that tells how readily two partners part at equilibrium) was 0.0805 nM; the Response amounted to 0.86; the koff (as a rule, the first-order rate constant of dissociation) came to 4.69e-05 s⁻¹; the on-rate (kon) – broadly, a measure of how fast the partners come together – is 583000 M⁻¹ s⁻¹.

Regarding B2, the Kd worked out at 0.687 nM, the Response is 1.16, the koff turned out to be 0.00037 s⁻¹ and the kon worked out at 539000 M⁻¹ s⁻¹.

Take B3: the dissociation constant Kd came to 0.469 nM, the Response is 1.18, the off-rate constant (koff) was 0.000199 s⁻¹ and the kon was found to be 425000 M⁻¹ s⁻¹.

B4: the Kd was 0.684 nM, the Response turned out to be 1.23, the koff was found to be 0.000375 s⁻¹ and the on-rate constant (kon) was 549000 M⁻¹ s⁻¹.

As for B5, the dissociation constant Kd came out at 0.283 nM, the Response amounted to 1.11, the off-rate constant (koff) is 0.000161 s⁻¹ and the on-rate (kon) was found to be 569000 M⁻¹ s⁻¹.

Turning to B6, the Kd was 0.633 nM, the Response was found to be 1.03, the koff came to 0.000383 s⁻¹ and the kon stood at 605000 M⁻¹ s⁻¹.

With B7, the Kd came to 0.795 nM, the Response came to 1.17, the dissociation rate constant (koff) worked out at 0.000198 s⁻¹ and the kon worked out at 249000 M⁻¹ s⁻¹.

On to B8, for which the equilibrium dissociation constant (Kd) was determined as 0.0861 nM, the Response stood at 0.952, the koff amounted to 5.68e-05 s⁻¹ and the on-rate (kon) was found to be 660000 M⁻¹ s⁻¹.

Regarding B9, the equilibrium dissociation constant (Kd) was 0.483 nM, the Response is 1.13, the koff worked out at 0.000268 s⁻¹ and the kon stood at 555000 M⁻¹ s⁻¹.

On to B10, for which the Kd was determined as 0.286 nM, the Response amounted to 1.11, the koff was found to be 0.000169 s⁻¹ and the association rate constant (kon) is 590000 M⁻¹ s⁻¹.

On to B11, for which the dissociation constant Kd was found to be 0.721 nM, the Response was 1.15, the koff was 0.000374 s⁻¹ and the kon was 519000 M⁻¹ s⁻¹.

Regarding B12, the Kd was determined as 0.601 nM, the Response is 1.02, the dissociation rate constant (koff) was 0.000314 s⁻¹ and the kon was found to be 522000 M⁻¹ s⁻¹.

As for B13, the Kd worked out at 1.6 nM, the Response is 1.19, the off-rate constant (koff) was 0.000773 s⁻¹ and the on-rate (kon) was found to be 483000 M⁻¹ s⁻¹.

The next experiment addresses T2, cyno MSLN (Macaca fascicularis (cynomolgus)).
T2 construct: soluble antigen for Octet; also called cynomolgus MSLN
Kind of experiment: Octet BLI; bsAb on anti-human Fc sensor, cyno MSLN as analyte, one concentration.
B1 had a Kd of 0.0938 nM, a Response of 0.737, an off-rate (koff) of 5.74e-05 s⁻¹ and a kon of 612000 M⁻¹ s⁻¹.

As for B2, the Kd turned out to be 0.585 nM, the Response stood at 1.06, the koff was 0.000337 s⁻¹ and the on-rate constant (kon) worked out at 575000 M⁻¹ s⁻¹.

Regarding B3, the affinity, expressed as Kd, was 0.395 nM; the Response is 1.07; the off-rate (koff) was 0.000157 s⁻¹; the association rate constant (kon) was 399000 M⁻¹ s⁻¹.

B4: binding was put at a Kd of 0.603 nM, the Response worked out at 1.11, the dissociation rate constant (koff) was determined as 0.000342 s⁻¹ and the association rate constant (kon) was 566000 M⁻¹ s⁻¹.

In turn, B5 returned a Kd of 0.223 nM, a Response of 1.04, a koff of 0.000128 s⁻¹ and an on-rate constant (kon) of 575000 M⁻¹ s⁻¹.

The molecule B6 yielded a Kd of 1.2 nM, a Response of 0.948, an off-rate constant (koff) of 0.000762 s⁻¹ and a kon of 634000 M⁻¹ s⁻¹.

B7 registered a Kd of 0.7 nM, a Response of 1.11, a koff of 0.000166 s⁻¹ and a kon of 238000 M⁻¹ s⁻¹.

Molecule B8 displayed a Kd of 0.0297 nM, a Response of 0.849, a koff of 2.01e-05 s⁻¹ and a kon of 676000 M⁻¹ s⁻¹.

For B9, binding was put at a Kd of 0.414 nM, the Response was 1.03, the koff stood at 0.00023 s⁻¹ and the kon amounted to 555000 M⁻¹ s⁻¹.

With B10, the dissociation constant Kd amounted to 0.255 nM, the Response came to 1, the off-rate (koff) stood at 0.000151 s⁻¹ and the association rate constant (kon) stood at 592000 M⁻¹ s⁻¹.

B11 gave a Kd of 0.62 nM, a Response of 1.09, an off-rate (koff) of 0.000321 s⁻¹ and an on-rate (kon) of 518000 M⁻¹ s⁻¹.

As for B12, binding was put at a Kd of 0.254 nM, the Response was determined as 0.891, the off-rate (koff) stood at 0.000146 s⁻¹ and the kon worked out at 576000 M⁻¹ s⁻¹.

Consider B13, for which the Kd is 1.66 nM, the Response was found to be 1.1, the off-rate (koff) was 0.000822 s⁻¹ and the kon worked out at 495000 M⁻¹ s⁻¹.
